Measurements taken from paper PMC5389796.

How the values were obtained:
[1] = target: TALK-1 T3 A277E (rs1535500)-FLAG (human) (UniProt Q96T55)
TALK-1 T3-FLAG (human) [2] = target: TALK-1 T3-FLAG (human) (UniProt Q96T55)
TALK-1 T3-FLAG (human) [3] = target: TALK-1 T3-FLAG (human) (UniProt Q96T55); remark: listed apart in the source

Substance: iOPN-V5 (from UniProt P10451-1 17-314) (natural protein)
- whole-cell K2P currents of T-REx cells with induced TALK-1 T3 A277E, increase with iOPN compared to the PKM2 control, at -60, -30, 0, 30 and 60 mV [1]: 18.7 pA/pF
- whole-cell K2P currents of T-REx cells with induced TALK-1 T3, increase with iOPN compared to the PKM2 control, at -60, -30, 0, 30 and 60 mV (TALK-1 T3-FLAG (human) [2]): 19.6 pA/pF
- change of resting membrane potential (ΔVm), TALK-1 T3 with iOPN against TALK-1 T3 with PKM2, perforated patch (TALK-1 T3-FLAG (human) [3]): -7.7 mV
- resting membrane potential (Vm) of T-REx cells expressing TALK-1 T3 with iOPN, perforated patch (TALK-1 T3-FLAG (human) [3]): -80.2 mV
